From doi:10.1101/2022.11.30.518472

Assays:
[1] = target: Uso1 CCD-His6x (pET21b-Uso1 CCD-His6x), coiled-coil domain (CC + CTR) (Aspergillus nidulans); assay: AUC + other: dynamic light scattering
[2] = target: Bos1-GST (pET21b-Bos1-GST), cytoplasmic domain of Bos1 (Aspergillus nidulans); assay: pull-down
[3] = target: Uso1(E6K/G540S)-His6x, full length (pET21b-Uso1(E6K/G540S)-His6x) (Aspergillus nidulans); assay: AUC + other: dynamic light scattering
[4] = target: Uso1(E6K/G540S)ΔCTR-His6x (pET21b-Uso1(E6K/G540S)ΔCTR-His6x) (Aspergillus nidulans); assay: AUC + other: dynamic light scattering
[5] = target: Uso1-HA3, full length, native protein of Aspergillus (Aspergillus nidulans); assay: SEC
[6] = target: Bet1-GST (pET21b-Bet1-GST), cytoplasmic domain of Bet1 (Aspergillus nidulans); assay: pull-down
[7] = target: Uso1-His6x, full length (pET21b-Uso1-His6x) (Aspergillus nidulans); assay: AUC + other: dynamic light scattering
[8] = target: Uso1-His6x, full length (pET21b-Uso1-His6x) (Aspergillus nidulans); assay: SEC
[9] = target: Uso1ΔCTR-His6x (pET21b-Uso1ΔCTR-His6x) (Aspergillus nidulans); assay: AUC + other: dynamic light scattering

Uso1 CCD-His6x (pET21b-Uso1 CCD-His6x), coiled-coil domain (CC + CTR) (domain or fragment)
stoichiometry N [1]: 2

Uso1(E6K/G540S)-His6x, full length (pET21b-Uso1(E6K/G540S)-His6x) (natural protein)
fold increase of the protein retained, against wild-type Uso1 [2]: 5 fold | stoichiometry N [3]: 2

Uso1(E6K/G540S)ΔCTR-His6x (pET21b-Uso1(E6K/G540S)ΔCTR-His6x) (domain or fragment)
stoichiometry N [4]: 2

Uso1-HA3, full length, native protein of Aspergillus (natural protein)
stoichiometry N [5]: 2

Uso1-His6x, full length (pET21b-Uso1-His6x) (natural protein)
percent of the prey pulled down [6]: 70% | stoichiometry N [7]: 2 | stoichiometry N [8]: 2

Uso1ΔCTR-His6x (pET21b-Uso1ΔCTR-His6x) (domain or fragment)
stoichiometry N [9]: 2
